From the nanobody polyreactivity screen of Harvey et al. (2022)

Experiment: yeast display, Sf9 membrane polyspecificity reagent, FACS + sequencing; frameworks hold sequencing errors
Procedure, shortened: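 Nanobodies from a synthetic yeast display library (Saccharomyces cerevisiae BJ5465), induced 36–48 hours with galactose, were stained 1 hour at 4 °C with 10% biotinylated, detergent-solubilized Sf9 membrane reagent, enriched on streptavidin microbeads, then FACS-sorted. Anti-HA (expression) and streptavidin (reagent binding) fluorescence set low and high (top ~1%) gates. Polyreactivity labels come from the gate of origin. Genes were colony-PCR amplified, MiSeq 2 × 250 sequenced and filtered by CDR length.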

Sequence | polyreactivity (PSR sort gate)
QVQLVESGGGLVQAGGSLRLSCAASGFIFWYYAMGWYRQSPGTERELVAGITSGGSTNYADSVKGRFTISRDNAKNTVYLQMNSLKPEDTAVYYCAAAPYGGFGRGYDYWGQGTQVTVSS | high polyreactivity
QVQLVESGGGLVQAGGSLRLSCAASGFIFYAYAMGWYRQAPGKEREFVAAISARGGNTYYADSVKGRFTISRDNAKNSVYLQMNSLKPEDTAVYYCAIYGGYYYLSGYYYWGQGTQVTVSS | high polyreactivity
QVQLVESGGGLVQAGGSLRLSCAASGFIFYDYAMGWYRQAPGKERELVAVITSGGSTYYADSVKGRFTISRDNAKNTVYLQMNSLKPEDTAVYYCNADWVFTWYDYPNDTYDYWGQGTQVTVSS | low polyreactivity
QVQLVESGGGLVQAGGSLRLSCAASGFIFYDYSMAWYRQAPGKEREFVAAISWSGGRTYYADSVKGRFTISRDNAKNTVYLQMNSLKPVDTAVYYCAVDAYRYWWTTYVSDFDYWGQGTQVTVSS | high polyreactivity
QVQLVESGGGLVQAGGSLRLSCAASGFIFYFYAMGWYRQAPGKERELVAAISSGGSTNYADSVKGRFTISRDNAQNTVYIQMNSQKPEDTAVYYCNKSGYSKYFLNDYTYWGQGTQVTVSS | low polyreactivity
QVQLVESGGGLVQAGGSLRLSCAASGFIFYFYAMGWYRQAPGKERELVAAISWSGGSTYYADSVKGRFTISRDNAKNTDYLQMNSLKPEDTAVYYCAAQSWSGDSTFWRYDYWGQGTQVTVSS | low polyreactivity
QVQLVESGGGLVQAGGSLRLSCAASGFIFYFYAMGWYRQAPWKERELVAAISSGGSTNYADSVKGRFTISRDNAKNTVYLQMISLKPEDTAVYYCARKTSSYFGHYYYWGQGTQVTVSS | low polyreactivity
QVQLVESGGGLVQAGGSLRLSCAASGFIFYFYTMGWYRQAPGKERELVAGITWLDGSTYYADSVKGRFTISRDNAKNTVYLQMNSLKPEDTAVYYCAVDYDLVVSPYYYWGQGTQVTVSS | low polyreactivity
QVQLVESGGGLVQAGGSLRLSCAASGFIFYGYTMGWYRQAPGKERELVAAITRGGSTYYADSVKGRFTISRDNAKNTVYLQMNSLKPEDTAVYYCAALTWDGMDYWGQGTQVTVSS | high polyreactivity
QVQLVESGGGLVQAGGSLRLSCAASGFIFYHNAMGWYRQAPGKERELVAAISQSGGRTYYADSVKGRFTISRDNAKNTVYLQMNSLKPEDTAGYYCAKRTRVYHPTYDYWGQGTQVTVSS | high polyreactivity
QVQLVESGGGLVQAGGSLRLSCAASGFIFYHYAMGWYRQAPGKARELVAAISGRGGSTYYADSVKGRFTISRDNAKNTVYLQMNSLKPEDTAVYYCATDRQRADYYWGQGTQVTVSS | high polyreactivity
QVQLVESGGGLVQAGGSLRLSCAASGFIFYHYVLGWYRQAPGKERELVAAITRGGSTYADSVKGRFTISRDNAKNTVYLQMNSLKPEDTAVYYCNADYPFSYFTRLMDYWGQGTQVTVSS | low polyreactivity
QVQLVESGGGLVQAGGSLRLSCAASGFIFYIYAMGWYRQAPGKERELVAAITSGGSTYYADSVKGRFTISRDNAKNTVYLQMNSLKPEDTAVYFCAAESYYGYDYWGQGTQVTLSS | low polyreactivity
QVQLVESGGGLVQAGGSLRLSCAASGFIFYKNAMGWSRQAPGKEREFVAAITWSGGNTYYADSVKGRFTISRDNAKNTVYLQLNSLKPEETAVYYCAARDSKWGQGTQVTVSS | low polyreactivity
QVQLVESGGGLVQAGGSLRLSCAASGFIFYKNAMGWYRQAPGKERELVAAISASGVRTYYADSVKGRFTISRDNAKNTVYLQMNSLKPEDTAVYYSAADYTPEYYWGQGTQVTVSS | high polyreactivity
QVQLVESGGGLVQAGGSLRLSCAASGFIFYKYAMGWYRQAPGKERELVAAITASGGSTYYADSVKGRFTISRDNEKITVYLQMNSLKPEDTEVYFCAASRLFGFDYWGQGTQVTVSS | high polyreactivity
QVQLVESGGGLVQAGGSLRLSCAASGFIFYLYAMGWSRQAPGKERELVASINVSGASTRYADSVKGRFTISRDNAKNTVYLQMNSLKPEDTAVYYCAAPSRYDYWGQGTQVTVSS | low polyreactivity
QVQLVESGGGLVQAGGSLRLSCAASGFIFYNAMGWYRQAPGKESELVAAITGSGGRTYYADSVKGRFTISRDNAKNTVYLQMNSLKPEDTAVYYCAADGYVRTVTSGWALRMGYWGQGTQVTVSS | high polyreactivity
QVQLVESGGGLVQAGGSLRLSCAASGFIFYNYAMGWYRQAPGKERELVAAISKSGDSTYYADSVKGRFTISRDNAKNTVYLQMNSLKPEDTAVYYCNKEIVWHLWYESWGQGTQVTVSS | high polyreactivity
QVQLVESGGGLVQAGGSLRLSCAASGFIFYQYAMGWYRQAPGKERELVAAISTRGGSTYYADSVKGRFTISRDNAKNTVYLQMNSLKPEDTAVYYCAATVNARRVTRRYYWGQGTQVTVSS | high polyreactivity
QVQLVESGGGLVQAGGSLRLSCAASGFIFYQYAMGWYRQAPGKERELVAAITSRGGRTYYADSVKGRFTISRDNAKNTVYLQMNSLKPEDTAVYYCAVRKASDYYYWGQGTQVTVSS | high polyreactivity
QVQLVESGGGLVQAGGSLRLSCAASGFIFYRNAMGWYRQAPGKERELVAGISRSGTRTYYADSVKGRFTISRDYSKNTVYLQMNSLKPEDTAVYYCAADRSLGYDYWGQGTQVTVSS | high polyreactivity

Sequence | polyreactivity (PSR sort gate)
QVQLVESGGGLVQAGGSLRLSCAASGFIFYRNPMGWYRQAPGKEREFVAAIRGRGGATYYADSVKGRFTISRDNAKITVYLQMNSLKREDTAVYYCAADTRPGYSGFEYWGQGTQVTVSS | high polyreactivity
QVQLVESGGGLVQAGGSLRLSCAASGFIFYRYAMGWYRQAPGKEREFVASISGSGGRTYFADSVKGRFTISRDNAKNTVYLQMNSLKPEDTAVYYCNVVSKSRISQYVGYSYDYWGQGTQVTVSS | high polyreactivity
QVQLVESGGGLVQAGGSLRLSCAASGFIFYRYAMGWYRQAPGKERELVATIRYSGGSTYYADSVKGRFTISRDNAKNTVYLQMNSLKPEDTAVYYCNARRRHPSVSRPPYDYWGQGTQVTVSS | high polyreactivity
QVQLVESGGGLVQAGGSLRLSCAASGFIFYRYTMGCYRQAPGKERELVAGISSRGTRTYYADSVKGRFTISRDNAKNTVYLQMNSLKPEDTAVYYCAKVDGSKRYNYWGQGTQVTVSS | high polyreactivity
QVQLVESGGGLVQAGGSLRLSCAASGFIFYSNAMGWYRQAPGKERELVAAISRGGGSTYYADSVKGRITISRDNAKNTVYLQMNSLIPVDTAVYYCAKRRLSPQDDYWGQGTQVTVSS | high polyreactivity
QVQLVESGGGLVQAGGSLRLSCAASGFIFYSNAMGWYRQAPGKERELVAAISRSGGSTYYADSVKGRFTISRDNAKNTVYLQMNSLKPEDTAVYYCNADYVYRRYGYWGQGSQVTVSS | high polyreactivity
QVQLVESGGGLVQAGGSLRLSCAASGFIFYSYAMGWYRQAPGKEREFVAAISRGGGRTYYADSVKGRFTISRDNAKNTVYLHMYSLKQEDTAVFYCATLPNGPHWPEYDYWGQGTQVTVSS | high polyreactivity
QVQLVESGGGLVQAGGSLRLSCAASGFIFYSYAMGWYRQAPGKERELVAAISFSGSRTYYADSVKGRFTISRDNAKNTVYLQMNSLKPEDTAVYYCAAYYIASRSTRYYYWGQGTQVTVSS | high polyreactivity
QVQLVESGGGLVQAGGSLRLSCAASGFIFYSYAMGWYRQAPGKERELVAAISRSGGITYYADSVKGRFTISRDNAKNTVYLQMNSLKPEDTAVYYCAKVGRGVSSIKDMDSWGQGTQVTVSS | high polyreactivity
QVQLVESGGGLVQAGGSLRLSCAASGFIFYSYAMGWYRQAPGKERELVAAITSSGGNTYYADSVKGRFTISRDNAKNTVYLQMNSLKPEDSAVYYCAASSRFWTFYYGIILYDYWGQGTQVTVSS | high polyreactivity
QVQLVESGGGLVQAGGSLRLSCAASGFIFYSYPMGWYRKAPGKERALVAAITEDGDSTYYADSVKGRFTISRDNAKNTVYLQMNSLKPVDTAVYYCNTDLTFNGTSGDYDYWGQGTQVTVSS | low polyreactivity
QVQLVESGGGLVQAGGSLRLSCAASGFIFYTYAMGWYRQAPGKERELVAAITWDGGSTYYADSVKGRFTISRDTAKNTVYLQMNSLKPEDTAVYYCNAEYGYIRGNYGYWGQGTQVTVSS | low polyreactivity
QVQLVESGGGLVQAGGSLRLSCAASGFIFYVYAMGWYRQAPGKERELVAAISADGGITYYADSVKGRFTISRDNAKNTVYLQMNSLKPEDTAVYYCNTLGDQDAYAGFRLDYWVQGTQVTVSS | low polyreactivity
QVQLVESGGGLVQAGGSLRLSCAASGFIFYYNAMGWYRQAPGKERELVASISFSGGSTYYADSVKGRFTISRDNAKNTVYLQKNSLKPEDTAVYYCAARYPGGRPWPRYYYWGQGNQVTVSS | high polyreactivity
QVQLVESGGGLVQAGGSLRLSCAASGFIFYYNTMGWYRQAPGKERELVASITWSGDTTYYADSVKGRFTISRDNAKNTVYLQMNSLKPEDTAVYYCAAVHYYTYRRYDYWGQGTQVTVSS | low polyreactivity
QVQLVESGGGLVQAGGSLRLSCAASGFIFYYNVMGWYRQAPGKERELVAAIRYRGTITYYADSVKGRFTISRDNAKNTVYLQMNSLKPEDTAVYYCARRQRNYYRSSPGGDYWGQGTQVTVSS | low polyreactivity
QVQLVESGGGLVQAGGSLRLSCAASGFIFYYYAMGWYRQAPGKERELVAAISRGGSTYYADSVKGRFTISRDNAKNTVYLQMNSLKPEDTAVYYCAAEAFPVYSYYYWGQGTQVTVSS | high polyreactivity
QVQLVESGGGLVQAGGSLRLSCAASGFIFYYYAMGWYRQAPGKERELVAAITSSGGSTYYADSVKGRFTISRDNAKNTVYLQKNSLKPEDTAVYYCAAYYHGRMDYWGQGTQVTVSS | high polyreactivity
QVQLVESGGGLVQAGGSLRLSCAASGFIFYYYAMGWYRQAPGKVRELVAAISTDGGSTYYADSVKGRFTISRDNAKNTVYLQMNSLKPEDTADYYCNAPYYGWGYWPLEYIRYEYWGQGTQVTVSS | low polyreactivity
QVQLVESGGGLVQAGGSLRLSCAASGFIFYYYAMGWYRQAPGKVRELVAGITATGGSTYYADSVKGRFTISRDNAKNTVYLQMNSLKPEDTAVYYCAAEHGRRATYTWWVIYDYLGQGTQVTVSS | low polyreactivity
QVQLVESGGGLVQAGGSLRLSCAASGFIFYYYAMGWYRQAPRKERELVAAISRSGGSTYYADSVKGRFTISRDNAKNTVYLQMNSLKPEDTAVYYCNTVPGTLYFRYDYWGQGTQVTVSS | high polyreactivity
